{"source": "paper PMC2602803", "binders": {"B1": {"name": "hemimethylated CpG 12-bp duplex (dsDNA)", "DNA 1": "TCCATGCGCTGAC", "DNA 2": "GTCAGCGCATGG", "modifications": "5-methylcytosine at position 6 of strand 2 (…); strand 1 unmethylated"}, "B2": {"name": "unmethylated CpG 12-bp duplex (dsDNA)", "DNA 1": "AACTGCGCAGTT", "DNA 2": "AACTGCGCAGTT"}}, "key": {"UHRF1 SRA domain (NP95) [1]": {"target": "T1, UHRF1 SRA domain (NP95) (mouse, UniProt Q8VDF2 419-628)", "T1 sequence": "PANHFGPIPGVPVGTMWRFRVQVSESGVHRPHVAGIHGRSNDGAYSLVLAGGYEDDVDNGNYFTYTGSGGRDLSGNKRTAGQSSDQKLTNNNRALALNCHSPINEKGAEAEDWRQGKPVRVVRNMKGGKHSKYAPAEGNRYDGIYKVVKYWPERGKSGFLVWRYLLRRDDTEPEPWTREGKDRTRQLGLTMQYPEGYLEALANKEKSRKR", "test": "X-ray crystallography"}, "UHRF1 SRA domain (NP95) [2]": {"target": "T1, UHRF1 SRA domain (NP95)", "test": "X-ray crystallography", "remark": "listed apart in the source"}}, "note": "Like-named read-outs stand apart in the source and are kept apart here.", "data": [{"binder": "B1", "values": [{"measurement": "binding result", "setting": "UHRF1 SRA domain (NP95) [1]", "value": "binds"}]}, {"binder": "B2", "values": [{"measurement": "binding result", "setting": "UHRF1 SRA domain (NP95) [2]", "value": "binds"}]}]}
